Assay results reported in US20110009342A1, “USES OF PDCD5 POLYPEPTIDE FOR TUMOR CHEMOTHERAPY AND ORGAN PROTECTION” (priority 2008, published 2011).

Key:
HL-60 cells = assay: cell apoptosis assay, As2O3; format: cell-based
Procedure: Methods: Cell apoptosis assay: HL-60 cells (ATCC) of logarithmic growth phase were cultured and the density of cells was 2×10^5/mL. The cells were divided into control and test groups. In the control groups, the HL60 cells were treated only with As2O3 (Harbin Yida Pharmaceutical Co., Ltd.), and the final concentration of As2O3 were 0 μg/mL, 0.25 μg/mL and 0.5 μg/mL, respectively. In the test groups, the HL60 cells were treated with As2O3 in the various concentrations combined with PDCD5 in various concentrations, the final concentrations of PDCD5 being 0 μg/mL, 5 μg/mL, 10 μg/mL and 20 μg/mL, respectively. The cells were incubated in a 37° C., 5% CO2 and saturatedly humidified incubator for 24 h, and subsequently were stained with Annexin-V/PI and detected for apoptosis by flow cytometer.

U937 xenografts = assay: U937 nude mice xenograft model, DNR; format: in vivo, BALB/c nude mice; conditions: fifteenth day; rhPDCD5 40 μg into the tumor, DNR 40 μg intraperitoneal, once a day for 8 days
Procedure: Methods: U937 nude mice xenograft model: BALB/c nude mice (5-6 weeks of age) were pretreated with cyclophosphamide (100 mg/kg, injected intraperitoneally once a day for two consecutive days). On day 3, 1×10^7 (100 μl) of U937 cells were subcutaneously (s.c.) injected into a single flank of each of the mice. The treatments began on day 7 after inoculation when the average tumor diameter reached about 5 mm. The mice were divided randomly into four groups (n=6, i.e., six mice in each group) and treated with normal saline (NS), rhPDCD5 (40 μg, locally injected into the tumor), DNR (40 μg, intraperitoneal) or DNR (40 μg) plus rhPDCD5 (40 μg), once a day for 8 consecutive days.
Tumor volume (V) was determined every other day by vernier caliper measurements and calculated based on the equation of V=ab^2/2, where “a” refers to a long tumor diameter and “b” refers to a short diameter, then tumor volume growth curve was drawn. The percentage of reductions in tumor growth was calculated using the formula: [1-(Tf-Ti)/(Cf-Ci)]×100, where Tf and Ti are the final and initial mean tumor volumes, respectively, of the group receiving a specific treatment, and Cf and Ci are the final and initial mean tumor volumes, respectively, of the NS control group. After the treatment, tumors were collected and weighed and tissues were sectioned and processed by histological hematoxylin and eosin (H&E) staining. Results were statistically analyzed using SPSS 13.0. The measurements were expressed as the mean±standard deviation. Data were analyzed by the single-factor ANOVA and Student's t test and are presented as mean±standard deviation (SD). P<0.05 was considered statistically significant.

[1] = test system: SiHa cervical cancer cells; conditions: Zhang et al. 2004; cited from earlier work
[2] = test system: HeLa, MGC-803, HT-29, A549, PC-3, U937, HL-60, Jurkat T lymphocytes, K562, Raji, TF-1 cells; assay: entry of exogenous PDCD5 into cell types; format: cell-based
U937 cells [3] = assay: colony forming ability (CFA), DNR; format: cell-based
Procedure: Analysis for colony forming ability (CFA): U937 cells (ATCC), in the logarithmic phase, were maintained in RPMI 1640 medium supplemented with 20% FBS and 0.4% methyl cellulose (Sigma) by the semi-solid colony culture method and were adjusted to a density of 5×10^3 cells/mL. The cells were divided into control groups and test groups, and each group was assayed in triple wells. U937 cells in the control groups were treated with DNR alone, with the final concentrations of 0 ng/mL and 0.5 ng/mL. U937 cells in the test group were treated with DNR of various concentrations combined with PDCD5 of various concentrations, while the final concentrations of PDCD5 were 0 μg/mL, 0.625 μg/mL, 1.25 μg/mL, and 2.5 μg/mL, respectively. After incubation for 14 days in a 37° C., 5% CO2 and saturatedly humidified incubator, a colony with more than 30 cells was counted by an inverted microscope in order to analyze colony forming ability of each group. The colony forming ability was shown as the ratio of average number of colony in each group versus that of the untreated control group in which the final concentrations of DNR and PDCD5 were 0 μg/mL.

K562 cells = assay: Annexin-V apoptosis by flow cytometry, Ara-C; format: cell-based
Procedure: Methods: Cell staining with FITC/Annexin-V and cell apoptosis detection in vitro by flow cytometry: K562 cells (ATCC) were maintained in RPMI 1640 (Life Technologies, USA) supplemented with 10% FBS (Hyclone, USA), and were plated in 24-well culture dishes to a density of 2×10^5 cells per well. rhPDCD5 protein was added in each well with a final concentration of 15 μg/mL, 30 μg/mL and 60 μg/mL, respectively. Chemotherapeutic drug Ara-C (Pharmacia, Italia) was then added with a final concentration of 0.1 μg/mL and RPMI 1640 medium supplemented with 10% FBS was added to bring the culture system to 1 mL. After incubation for 48 hours, the cells were stained with Annexin-V/PI (Biosea) and then were analyzed for apoptosis by flow cytometry.

U937 cells [4] = assay: cell apoptosis assay, DNR; format: cell-based
Procedure: Methods: Cell apoptosis assay: U937 cells (ATCC), in the logarithmic phase, were maintained in RPMI 1640 (Life Technologies, USA) supplemented with 10% FBS (Hyclone, USA), and were adjusted to a density of 2×10^5 cells/mL and then were divided into control groups and test groups. U937 cells in the control groups were treated with DNR (Pharmacia Italia SPA) alone, with the final concentrations of 0 μg/mL, 0.05 μg/mL, and 0.1 μg/mL. U937 cells in the test groups were treated with DNR of various concentrations combined with PDCD5 of various concentrations, with the final concentrations of PDCD5 being 0 μg/mL, 2.5 μg/mL, and 5 μg/mL, respectively. After being incubated for 24 hours in a 37° C., 5% CO2 and saturatedly humidified incubator, the cells were stained with Annexin-V/PI (Biosea) and then were analyzed for apoptosis with a FACSCalibur flow cytometer.

Raji cells = assay: FITC/Annexin-V apoptosis by flow cytometry, DNR; format: cell-based
Procedure: Methods: Raji cells were cultured in RPMI 1640 medium (Life Technologies, USA) supplemented with 10% Fetal Bovine Serum (FBS, Hyclone, USA). The cells were seeded in 24-well plates with 2×10^5 cells per well. rhPDCD5 was added to each well and the final concentrations were 0 μg/mL, 2.5 μg/mL and 5 μg/mL, respectively. Subsequently, DNR was added and the final concentrations were 0 μg/mL and 0.05 μg/mL, and RPMI 1640 medium supplemented with 10% FBS was added to ensure the system was brought to 1 mL. After 24 h incubation, the cells were stained with FITC/Annexin-V (Beijing Biosea Biotechnology Co., Ltd.) and the apoptosis was detected by flow cytometry.

B1: rhPDCD5: recombinant human programmed cell death 5 protein (SEQ ID NO:1) expressed in E. coli and purified (protein, listed as Homo sapiens)
chain: MADEELEALRRQRLAELQAKHGDPGDAAQQEAKHREAEMRNSILAQVLDQSARARLSNLALVKPEKTKAVENYLIQMARYGQLSEKVSEQGLIEILKKVSQQTEKTTTVKFNRRKVMDSDEDDDY
- enhancement of induced apoptosis (HL-60 cells): can significantly enhance As2O3-induced apoptosis
- Average size of tumors (mean ± SD) (U937 xenografts): 571.96 ± 237.91 mm^3
- effect on apoptosis induced by IFNγ in vitro [1]: had a sensitized effect on apoptosis of SiHa cervical cancer cells
- specificity for cell types while entering into cells [2]: shows no specificity for cell types
- enhancement of inhibition of CFA by DNR (U937 cells [3]): can significantly enhance the inhibition of CFA by DNR
- effect on the CFA of U937 cells (U937 cells [3]; rhPDCD5 alone): did not have significant effect
- promotion of apoptosis induced by Ara-C (K562 cells): could significantly promote apoptosis
- enhancement of DNR-induced apoptosis (U937 cells [4]): can significantly enhance DNR-induced apoptosis
- enhancement of DNR-induced apoptosis (Raji cells): can significantly enhance DNR-induced apoptosis
